Among the data in the supplement of paper PMC6755084 are fraction ligated values, retold here.

This data set concerns F1*sub RNA substrate (template-directed ligation). Description: fraction ligated after 30 min (ligated reads / total reads); higher = more ligase activity; sequences stand for … in GAGACCGCAACTGAAAAGTTGT…AGTTCTGCACGTAGAAGCAAAAGGC
The conditions noted are these: 42 °C. The method in brief:
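The ligase ribozyme variants were produced by PCR amplification of oligo-pool templates, T7 transcription and purification on gel. Their ligated and unligated forms were gel-separated, then reverse transcribed with barcoded primers before MiSeq sequencing. Core bases were filtered at a quality of ≥20, and fraction ligated per variant was ligated reads over total reads.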
Regarding “TATCACTTTCGAAGACACTTTGGTGGGTTGA [3d1501]”, the fraction ligated turned out to be 0.0423.

The sequence “TATCACTTTCGAAGACATTTGGATGGGTTGA [3d1498]” showed a fraction ligated of 0.769.

In turn, “TATCACTTTCGAAGACCTTTGGATGGGTTGA [3d1497]” yielded a fraction ligated of 0.765.

As to “TATCACTTTCGAAGCACTTTGGATGGGTTGA [3d1495]”, the fraction ligated came to 0.766.

In turn, “TATCACTTTCGAGACACTTTGGATGGGTTGA [3d1493]” showed a fraction ligated of 0.79.

In turn, “TATCACTTTCGTAAAACTTTGGATGGGTTGA [3d1519]” came in with a fraction ligated of 0.823.

For the sequence “TATCACTTTCGTAAACACTTGGATGGGTTGA [3d1522]”, the fraction ligated is 0.778.

Sequence “TATCACTTTCGTAAACACTTTGATGGGTTGA [3d1523]” gave a fraction ligated of 0.768.

For the sequence “TATCACTTTCGTAAACACTTTGGAGGGTTGA [3d1525]”, the fraction ligated stood at 0.0183.

For “TATCACTTTCGTAAACACTTTGGATGGGTTA [3d1527]”, the fraction ligated is 0.575.

“TATCACTTTCGTAAACACTTTGGATGGGTTG [3d1528]”: the fraction ligated came to 0.776.

As to “TATCACTTTCGTAAACACTTTGGATGGTTGA [3d1526]”, the fraction ligated turned out to be 0.0497.

Turning to “TATCACTTTCGTAAACACTTTGGTGGGTTGA [3d1524]”, the fraction ligated turned out to be 0.0319.

“TATCACTTTCGTAAACATTTGGATGGGTTGA [3d1521]” showed a fraction ligated of 0.787.

The sequence “TATCACTTTCGTAAACCTTTGGATGGGTTGA [3d1520]” had a fraction ligated of 0.788.

Turning to “TATCACTTTCGTAACACTTTGGATGGGTTGA [3d1507]”, the fraction ligated came to 0.796.

For “TATCACTTTCGTAAGAACTTGGATGGGTTGA [3d1540]”, the fraction ligated is 0.829.

“TATCACTTTCGTAAGAACTTTGATGGGTTGA [3d1541]” yielded a fraction ligated of 0.829.

With “TATCACTTTCGTAAGAACTTTGGAGGGTTGA [3d1543]”, the fraction ligated was determined as 0.126.

“TATCACTTTCGTAAGAACTTTGGATGGGTTA [3d1545]” yielded a fraction ligated of 0.851.

In turn, “TATCACTTTCGTAAGAACTTTGGATGGGTTG [3d1546]” had a fraction ligated of 0.868.

“TATCACTTTCGTAAGAACTTTGGATGGTTGA [3d1544]” gave a fraction ligated of 0.643.

For the sequence “TATCACTTTCGTAAGAACTTTGGTGGGTTGA [3d1542]”, the fraction ligated is 0.342.

“TATCACTTTCGTAAGAATTTGGATGGGTTGA [3d1539]” showed a fraction ligated of 0.835.

As to “TATCACTTTCGTAAGACACTGGATGGGTTGA [3d1561]”, the fraction ligated is 0.774.

For the sequence “TATCACTTTCGTAAGACACTTGATGGGTTGA [3d1562]”, the fraction ligated was 0.787.

Sequence “TATCACTTTCGTAAGACACTTGGAGGGTTGA [3d1564]” yielded a fraction ligated of 0.085.

Sequence “TATCACTTTCGTAAGACACTTGGATGGGTTA [3d1566]” registered a fraction ligated of 0.477.

“TATCACTTTCGTAAGACACTTGGATGGGTTG [3d1567]” came in with a fraction ligated of 0.773.

In the case of “TATCACTTTCGTAAGACACTTGGATGGTTGA [3d1565]”, the fraction ligated came out at 0.134.

Take “TATCACTTTCGTAAGACACTTGGTGGGTTGA [3d1563]”: the fraction ligated was found to be 0.171.

“TATCACTTTCGTAAGACACTTTATGGGTTGA [3d1568]” had a fraction ligated of 0.0429.

Turning to “TATCACTTTCGTAAGACACTTTGAGGGTTGA [3d1570]”, the fraction ligated was found to be 0.0593.

Turning to “TATCACTTTCGTAAGACACTTTGATGGGTTA [3d1572]”, the fraction ligated is 0.0837.

“TATCACTTTCGTAAGACACTTTGATGGGTTG [3d1573]” showed a fraction ligated of 0.731.

“TATCACTTTCGTAAGACACTTTGATGGTTGA [3d1571]” came in with a fraction ligated of 0.0696.

Take “TATCACTTTCGTAAGACACTTTGGAGGGTTA [3d1579]”: the fraction ligated came to 0.04.

Regarding “TATCACTTTCGTAAGACACTTTGGAGGGTTG [3d1580]”, the fraction ligated is 0.0276.

As to “TATCACTTTCGTAAGACACTTTGGAGGTTGA [3d1578]”, the fraction ligated was 0.0266.

Take “TATCACTTTCGTAAGACACTTTGGATGGGTT [3d1583]”: the fraction ligated amounted to 0.22.

In the case of “TATCACTTTCGTAAGACACTTTGGATGGGTTA [2d161]”, the fraction ligated was found to be 0.751.

“TATCACTTTCGTAAGACACTTTGGATGGGTTG [2d162]” returned a fraction ligated of 0.777.

Turning to TATCACTTTCGTAAGACACTTTGGATGGGTTGA [1d8], the fraction ligated turned out to be 0.815.

“TATCACTTTCGTAAGACACTTTGGATGGTTA [3d1581]” returned a fraction ligated of 0.0764.

Sequence “TATCACTTTCGTAAGACACTTTGGATGGTTG [3d1582]” registered a fraction ligated of 0.0551.

In turn, “TATCACTTTCGTAAGACACTTTGGATGGTTGA [2d160]” gave a fraction ligated of 0.114.

With “TATCACTTTCGTAAGACACTTTGGGGGTTGA [3d1574]”, the fraction ligated was 0.0345.

In turn, “TATCACTTTCGTAAGACACTTTGGTGGGTTA [3d1576]” registered a fraction ligated of 0.0309.

As to “TATCACTTTCGTAAGACACTTTGGTGGGTTG [3d1577]”, the fraction ligated was found to be 0.0247.

“TATCACTTTCGTAAGACACTTTGGTGGTTGA [3d1575]” showed a fraction ligated of 0.025.

“TATCACTTTCGTAAGACACTTTGTGGGTTGA [3d1569]” had a fraction ligated of 0.0262.

On to “TATCACTTTCGTAAGACATTGGATGGGTTGA [3d1554]”, for which the fraction ligated was 0.791.

Consider “TATCACTTTCGTAAGACATTTGATGGGTTGA [3d1555]”, for which the fraction ligated is 0.768.

“TATCACTTTCGTAAGACATTTGGAGGGTTGA [3d1557]” had a fraction ligated of 0.0972.

“TATCACTTTCGTAAGACATTTGGATGGGTTA [3d1559]” came in with a fraction ligated of 0.778.

In turn, “TATCACTTTCGTAAGACATTTGGATGGGTTG [3d1560]” yielded a fraction ligated of 0.811.

“TATCACTTTCGTAAGACATTTGGATGGTTGA [3d1558]” gave a fraction ligated of 0.286.

“TATCACTTTCGTAAGACATTTGGTGGGTTGA [3d1556]”: the fraction ligated came out at 0.284.

For “TATCACTTTCGTAAGACCTTGGATGGGTTGA [3d1547]”, the fraction ligated stood at 0.766.

For the sequence “TATCACTTTCGTAAGACCTTTGATGGGTTGA [3d1548]”, the fraction ligated came out at 0.786.

“TATCACTTTCGTAAGACCTTTGGAGGGTTGA [3d1550]” registered a fraction ligated of 0.0285.

Turning to “TATCACTTTCGTAAGACCTTTGGATGGGTTA [3d1552]”, the fraction ligated came out at 0.623.

In the case of “TATCACTTTCGTAAGACCTTTGGATGGGTTG [3d1553]”, the fraction ligated stood at 0.75.

On to “TATCACTTTCGTAAGACCTTTGGATGGTTGA [3d1551]”, for which the fraction ligated was determined as 0.0784.

The sequence “TATCACTTTCGTAAGACCTTTGGTGGGTTGA [3d1549]” came in with a fraction ligated of 0.104.

Sequence “TATCACTTTCGTAAGACTTTGGATGGGTTGA [3d1529]” had a fraction ligated of 0.823.

“TATCACTTTCGTAAGCACTTGGATGGGTTGA [3d1532]” gave a fraction ligated of 0.772.

For “TATCACTTTCGTAAGCACTTTGATGGGTTGA [3d1533]”, the fraction ligated turned out to be 0.784.

“TATCACTTTCGTAAGCACTTTGGAGGGTTGA [3d1535]” displayed a fraction ligated of 0.03.

Regarding “TATCACTTTCGTAAGCACTTTGGATGGGTTA [3d1537]”, the fraction ligated came to 0.727.

Take “TATCACTTTCGTAAGCACTTTGGATGGGTTG [3d1538]”: the fraction ligated turned out to be 0.764.

Sequence “TATCACTTTCGTAAGCACTTTGGATGGTTGA [3d1536]” showed a fraction ligated of 0.0345.

With “TATCACTTTCGTAAGCACTTTGGTGGGTTGA [3d1534]”, the fraction ligated came out at 0.0496.

Turning to “TATCACTTTCGTAAGCATTTGGATGGGTTGA [3d1531]”, the fraction ligated was 0.791.

“TATCACTTTCGTAAGCCTTTGGATGGGTTGA [3d1530]” yielded a fraction ligated of 0.774.

“TATCACTTTCGTAGAACTTTGGATGGGTTGA [3d1509]” showed a fraction ligated of 0.875.

Sequence “TATCACTTTCGTAGACACTTGGATGGGTTGA [3d1512]” came in with a fraction ligated of 0.752.

“TATCACTTTCGTAGACACTTTGATGGGTTGA [3d1513]”: the fraction ligated worked out at 0.783.

In turn, “TATCACTTTCGTAGACACTTTGGAGGGTTGA [3d1515]” came in with a fraction ligated of 0.0412.

In the case of “TATCACTTTCGTAGACACTTTGGATGGGTTA [3d1517]”, the fraction ligated was 0.631.

For the sequence “TATCACTTTCGTAGACACTTTGGATGGGTTG [3d1518]”, the fraction ligated was 0.786.

As to “TATCACTTTCGTAGACACTTTGGATGGGTTGA [2d150]”, the fraction ligated was determined as 0.802.

The sequence “TATCACTTTCGTAGACACTTTGGATGGTTGA [3d1516]” returned a fraction ligated of 0.0829.

Sequence “TATCACTTTCGTAGACACTTTGGTGGGTTGA [3d1514]” returned a fraction ligated of 0.0546.

In the case of “TATCACTTTCGTAGACATTTGGATGGGTTGA [3d1511]”, the fraction ligated came to 0.77.

“TATCACTTTCGTAGACCTTTGGATGGGTTGA [3d1510]” registered a fraction ligated of 0.78.

Sequence “TATCACTTTCGTAGCACTTTGGATGGGTTGA [3d1508]” returned a fraction ligated of 0.826.

Turning to “TATCACTTTCGTGACACTTTGGATGGGTTGA [3d1506]”, the fraction ligated amounted to 0.813.

The sequence “TATCACTTTCTAAACACTTTGGATGGGTTGA [3d1481]” showed a fraction ligated of 0.79.

“TATCACTTTCTAAGAACTTTGGATGGGTTGA [3d1483]” registered a fraction ligated of 0.87.

Turning to “TATCACTTTCTAAGACACTTGGATGGGTTGA [3d1486]”, the fraction ligated turned out to be 0.767.

Sequence “TATCACTTTCTAAGACACTTTGATGGGTTGA [3d1487]” came in with a fraction ligated of 0.77.

“TATCACTTTCTAAGACACTTTGGAGGGTTGA [3d1489]”: the fraction ligated turned out to be 0.026.

In turn, “TATCACTTTCTAAGACACTTTGGATGGGTTA [3d1491]” showed a fraction ligated of 0.68.

Sequence “TATCACTTTCTAAGACACTTTGGATGGGTTG [3d1492]” returned a fraction ligated of 0.785.

For “TATCACTTTCTAAGACACTTTGGATGGGTTGA [2d148]”, the fraction ligated amounted to 0.794.

Take “TATCACTTTCTAAGACACTTTGGATGGTTGA [3d1490]”: the fraction ligated was determined as 0.114.
